Laboratory results published in patent US20220273789A1.
Where two headings read alike, the source gives them in different places.

Columns and labels:
[1] = biological target: Recombinant HSV2 gEgI protein (coating antigen of the competitive ELISA, produced in ExpiHEK293F) (HSV2 strain SD90e) (UniProt P89475); assay: ED50 of the competitive ELISA (competitor: human IgG); GM of N=4 mice, 21PIII (D63); bar below the positivity threshold (1/10), 5 being the first dilution/2
[2] = biological target: Recombinant HSV1 gEgI protein (coating antigen of the competitive ELISA, produced in ExpiCHO) (HSV1 strain KOS321; HSV1 strain 17); assay: ED50 of the competitive ELISA (competitor: human IgG); GM of N=5 mice, 21PII (D49); 5 is the value given to negative samples (first dilution/2), below the positivity threshold (1/10)
[3] = biological target: Recombinant HSV1 gEgI protein (coating antigen of the competitive ELISA, produced in ExpiCHO) (HSV1 strain KOS321; HSV1 strain 17); assay: ED50 of the competitive ELISA (competitor: human IgG); GM of N=4 mice, 14PIII (D42); 5 is the value given to negative samples (first dilution/2), below the positivity threshold (1/10)
[4] = biological target: Recombinant HSV2 gEgI protein (coating antigen of the competitive ELISA, produced in ExpiHEK293F) (HSV2 strain SD90e) (UniProt P89475); assay: as above
human IgG (human) [5] = assay: BLI (Octet), His-tagged gEgI immobilised on Ni-NTA sensor, response to human IgG
human IgG (human) [6] = assay: BLI (Octet), gEgI on Ni-NTA sensor, hIgG in solution
human IgG (human) [7] = assay: BLI Octet, construct on Ni-NTA sensor, hIgG in solution
human IgG (human) [8] = assay: BLI (Octet), gEgI on Ni-NTA sensor, hIgG in solution; remark: listed apart in the source

## NaCl150mM
[1]
  ED50 titer (geometric mean) (reciprocal dilution): 5
[2]
  ED50 titer (geometric mean) (reciprocal dilution): 5
[3]
  ED50 (geometric mean) (reciprocal dilution): 5
[4]
  ED50 titer (geometric mean) (reciprocal dilution): 5

## PN90 (HSV2-gE_gI) (from UniProt P89475 21-416; P06764 21-256) (receptor)
Human IgG (human) [5]
  hIgG binding response: 0.623 nm

## PN101 (HSV2-gE_P317G-P318K_Δ319-320_gI) (from UniProt P89475 21-416; P06764 21-256) (receptor)
Human IgG (human) [5]
  hIgG binding response: 0.0868 nm

## PN95 (HSV2-gE_P317G-P318G_Δ319-320_gI) (from UniProt P89475 21-416; P06764 21-256) (receptor)
Human IgG (human) [5]
  hIgG binding response: 0.0748 nm

## HSV2-gE_A248T V340W_gI (from UniProt P89475 21-416; P06764 21-256) (receptor)
Human IgG (human) [6]
  Kd: 1e-06 µM
  Response: 0.0605 nm
Human IgG (human) [7]
  Kd: < 1e-06 µM
  Response (nm): 0.0605 nm
  koff: < 1e-07 s⁻¹
  kon: 3020 M⁻¹ s⁻¹

## HSV2-gE_H245S R320G_gI (from UniProt P89475 21-416; P06764 21-256) (receptor)
Human IgG (human) [6]
  Kd: 0.745 µM
  Response: 0.196 nm
Human IgG (human) [7]
  Kd: 0.745 µM
  Response (nm): 0.196 nm
  koff: 0.0039 s⁻¹
  kon: 5240 M⁻¹ s⁻¹

## HSV2-gE_A248G V340W_gI (from UniProt P89475 21-416; P06764 21-256) (receptor)
Human IgG (human) [6]
  Kd: 39.2 µM
  Response: 0.0826 nm
Human IgG (human) [7]
  Kd: 39.2 µM
  Response (nm): 0.0826 nm
  koff: 0.0107 s⁻¹
  kon: 273 M⁻¹ s⁻¹

## PN97 (HSV2-gE_P318G_Δ319-320_gI) (from UniProt P89475 21-416; P06764 21-256) (receptor)
Human IgG (human) [5]
  hIgG binding response: 0.146 nm

## HSV2-gE_R320E_gI (from UniProt P89475 21-416; P06764 21-256) (receptor)
Human IgG (human) [6]
  Kd: 4.95 µM
  Response: 0.223 nm
Human IgG (human) [7]
  Kd: 4.95 µM
  Response (nm): 0.223 nm
  koff: 0.00455 s⁻¹
  kon: 919 M⁻¹ s⁻¹

## HSV2-gE_A246W_gI (from UniProt P89475 21-416; P06764 21-256) (receptor)
Human IgG (human) [6]
  Kd: 6.91 µM
  Response: 0.231 nm
Human IgG (human) [7]
  Kd: 6.91 µM
  Response (nm): 0.231 nm
  koff: 0.00621 s⁻¹
  kon: 898 M⁻¹ s⁻¹

## HSV2-gE_A246W R320G_gI (from UniProt P89475 21-416; P06764 21-256) (receptor)
Human IgG (human) [6]
  Kd: 1e-06 µM
  Response: 0.0639 nm
Human IgG (human) [7]
  Kd: < 1e-06 µM
  Response (nm): 0.0639 nm
  koff: < 1e-07 s⁻¹
  kon: 3430 M⁻¹ s⁻¹

## HSV2-gE_H245E_gI (from UniProt P89475 21-416; P06764 21-256) (receptor)
Human IgG (human) [6]
  Kd: 11.9 µM
  Response: 0.168 nm
Human IgG (human) [7]
  Kd: 11.9 µM
  Response (nm): 0.168 nm
  koff: 0.00705 s⁻¹
  kon: 595 M⁻¹ s⁻¹

## PN98 (HSV2-gE_P318K_Δ319-320_gI) (from UniProt P89475 21-416; P06764 21-256) (receptor)
Human IgG (human) [5]
  hIgG binding response: 0.135 nm

## HSV2-gE_V340F_gI (from UniProt P89475 21-416; P06764 21-256) (receptor)
Human IgG (human) [6]
  Kd: 1e-06 µM
  Response: 0.114 nm
Human IgG (human) [7]
  Kd: < 1e-06 µM
  Response (nm): 0.114 nm
  koff: < 1e-07 s⁻¹
  kon: 3140 M⁻¹ s⁻¹

## HSV2-gE_H245G R320D_gI (from UniProt P89475 21-416; P06764 21-256) (receptor)
Human IgG (human) [6]
  Kd: 14.2 µM
  Response: 0.0927 nm
Human IgG (human) [7]
  Kd: 14.2 µM
  Response (nm): 0.0927 nm
  koff: 0.00667 s⁻¹
  kon: 469 M⁻¹ s⁻¹

## HSV2-gE_A248T V340M_gI (from UniProt P89475 21-416; P06764 21-256) (receptor)
Human IgG (human) [6]
  Kd: 1e-06 µM
  Response: 0.108 nm
Human IgG (human) [7]
  Kd: < 1e-06 µM
  Response (nm): 0.108 nm
  koff: < 1e-07 s⁻¹
  kon: 4440 M⁻¹ s⁻¹

## PN93 (HSV2-gE_P319D-R320D_gI) (from UniProt P89475 21-416; P06764 21-256) (receptor)
Human IgG (human) [5]
  hIgG binding response: 0.0658 nm

## HSV2-gE_A248T F322A_gI (from UniProt P89475 21-416; P06764 21-256) (receptor)
Human IgG (human) [6]
  Kd: 7.01 µM
  Response: 0.167 nm
Human IgG (human) [7]
  Kd: 7.01 µM
  Response (nm): 0.167 nm
  koff: 0.00629 s⁻¹
  kon: 897 M⁻¹ s⁻¹

## HSV2-gE_P318R S338G_gI (from UniProt P89475 21-416; P06764 21-256) (receptor)
Human IgG (human) [8]
  Kd: < 1 pM
  Response: 0.177 nm
  koff: < 1e-07 s⁻¹
  kon: 8690 M⁻¹ s⁻¹
Human IgG (human) [6]
  Kd: 1e-06 µM

## HSV2-gE_A248T_gI (from UniProt P89475 21-416; P06764 21-256) (receptor)
Human IgG (human) [6]
  Kd: 12.2 µM
  Response: 0.123 nm
Human IgG (human) [7]
  Kd: 12.2 µM
  Response (nm): 0.123 nm
  koff: 0.00574 s⁻¹
  kon: 470 M⁻¹ s⁻¹

## PN99 (HSV2-gE_P317R-P318E_Δ319-320_gI) (from UniProt P89475 21-416; P06764 21-256) (receptor)
Human IgG (human) [5]
  hIgG binding response: 0.0795 nm

## PN100 (HSV2-gE_P317R-P318G_Δ319-320_gI) (from UniProt P89475 21-416; P06764 21-256) (receptor)
Human IgG (human) [5]
  hIgG binding response: 0.0877 nm

## PN92 (HSV2-gE_P317R-R320D_gI) (from UniProt P89475 21-416; P06764 21-256) (receptor)
Human IgG (human) [5]
  hIgG binding response: 0.056 nm

## HSV2-gE_H245A R320D_gI (from UniProt P89475 21-416; P06764 21-256) (receptor)
Human IgG (human) [6]
  Kd: 6.42 µM
  Response: 0.116 nm
Human IgG (human) [7]
  Kd: 6.42 µM
  Response (nm): 0.116 nm
  koff: 0.00704 s⁻¹
  kon: 1100 M⁻¹ s⁻¹

## PN94 (HSV2-gE_Δ319-320_gI) (from UniProt P89475 21-416; P06764 21-256) (receptor)
Human IgG (human) [5]
  hIgG binding response: 0.115 nm

## HSV2-gE_H245S R320T_gI (from UniProt P89475 21-416; P06764 21-256) (receptor)
Human IgG (human) [6]
  Kd: 0.718 µM
  Response: 0.205 nm
Human IgG (human) [7]
  Kd: 0.718 µM
  Response (nm): 0.205 nm
  koff: 0.00503 s⁻¹
  kon: 7000 M⁻¹ s⁻¹

## PN96 (HSV2-gE_P318E_Δ319-320_gI) (from UniProt P89475 21-416; P06764 21-256) (receptor)
Human IgG (human) [5]
  hIgG binding response: 0.0619 nm

## PN91 (HSV2-gE_P317R-P319D_gI) (from UniProt P89475 21-416; P06764 21-256) (receptor)
Human IgG (human) [5]
  hIgG binding response: 0.0658 nm
